Data set [1] is described as follows: dynamic light scattering. The data set is classed as physicochemical. As to conditions: DLS at 15 °C, ~21 µM (assuming COMA dimer) or similar concentrations.
The target in data set [2] is T1, fluorescently labelled full-length Ctf19-Mcm21 (Kluyveromyces lactis, UniProt Q6CRN7+Q6CVQ9).
T1 construct: we purified full-length K. lactis; NT-647-NHS red fluorescent dye on lysine side chains (chemical label); made in house; host or cells: Escherichia coli BL21 Rosetta 2(DE3)pLysS
T1 sequence (Q6CRN7 1-270): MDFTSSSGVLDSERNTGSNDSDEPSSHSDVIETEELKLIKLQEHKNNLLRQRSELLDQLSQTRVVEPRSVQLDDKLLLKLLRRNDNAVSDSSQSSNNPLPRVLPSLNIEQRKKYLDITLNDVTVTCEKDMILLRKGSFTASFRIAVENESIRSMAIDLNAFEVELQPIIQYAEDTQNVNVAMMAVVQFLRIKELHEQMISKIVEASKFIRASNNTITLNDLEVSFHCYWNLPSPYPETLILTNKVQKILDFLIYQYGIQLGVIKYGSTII
T1 sequence (Q6CVQ9 1-293): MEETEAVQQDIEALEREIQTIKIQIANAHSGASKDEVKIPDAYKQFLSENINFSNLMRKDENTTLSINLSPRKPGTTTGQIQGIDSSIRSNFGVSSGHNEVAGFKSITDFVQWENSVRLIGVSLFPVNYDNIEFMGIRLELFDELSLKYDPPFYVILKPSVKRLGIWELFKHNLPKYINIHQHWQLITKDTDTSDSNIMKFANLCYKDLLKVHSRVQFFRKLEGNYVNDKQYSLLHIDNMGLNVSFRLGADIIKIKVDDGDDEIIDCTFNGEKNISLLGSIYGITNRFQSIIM
Put plainly: microscale thermophoresis (MST) of Okp1-derived peptides with full-length Ctf19-Mcm21. The data set is classed as binding, K. lactis. To be noted: NT.115 Monolith, 22–25 °C, ~27 nM NT-647-labelled Ctf19-Mcm21, ITC/MST buffer pH 7.5, thermophoresis + T jump, mean and 68% confidence interval, three independent experiments.

In data set [3] the target is T2, COMA (K. lactis, full length: Ame1, Ctf19, Mcm21, Okp1) (Kluyveromyces lactis, UniProt Q6CUE5 1-292; Q6CRN7 1-270; Q6CVQ9 1-293; Q6CJY0 1-383).
T2 construct: Ame1 of Kluyveromyces lactis; Ctf19 of Kluyveromyces lactis; Mcm21 of Kluyveromyces lactis; Okp1 of Kluyveromyces lactis; copies: + + +
T2 sequence (looked up) 1: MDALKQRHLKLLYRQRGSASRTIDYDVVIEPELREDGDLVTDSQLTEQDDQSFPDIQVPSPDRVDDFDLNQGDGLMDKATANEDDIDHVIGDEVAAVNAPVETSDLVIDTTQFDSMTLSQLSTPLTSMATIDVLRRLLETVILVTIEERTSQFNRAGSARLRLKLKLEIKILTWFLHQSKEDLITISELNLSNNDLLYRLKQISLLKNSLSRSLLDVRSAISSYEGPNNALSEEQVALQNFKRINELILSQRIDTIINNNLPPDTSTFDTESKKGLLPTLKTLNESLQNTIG
T2 sequence (looked up) 2: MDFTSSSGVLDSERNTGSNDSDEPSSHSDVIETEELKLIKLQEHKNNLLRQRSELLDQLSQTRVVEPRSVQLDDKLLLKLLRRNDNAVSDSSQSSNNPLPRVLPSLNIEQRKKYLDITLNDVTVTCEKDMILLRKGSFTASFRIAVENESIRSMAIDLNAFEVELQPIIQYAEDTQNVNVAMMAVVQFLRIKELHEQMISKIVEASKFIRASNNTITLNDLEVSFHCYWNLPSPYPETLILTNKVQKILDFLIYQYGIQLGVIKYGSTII
T2 sequence (looked up) 3: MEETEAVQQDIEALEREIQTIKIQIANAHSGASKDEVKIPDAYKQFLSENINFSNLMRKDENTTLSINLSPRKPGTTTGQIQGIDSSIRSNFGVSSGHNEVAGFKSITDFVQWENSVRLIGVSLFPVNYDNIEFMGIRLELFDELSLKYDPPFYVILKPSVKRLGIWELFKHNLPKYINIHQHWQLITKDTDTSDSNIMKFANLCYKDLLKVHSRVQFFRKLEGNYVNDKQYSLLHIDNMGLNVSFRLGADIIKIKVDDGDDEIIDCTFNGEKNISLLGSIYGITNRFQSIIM
T2 sequence (looked up) 4: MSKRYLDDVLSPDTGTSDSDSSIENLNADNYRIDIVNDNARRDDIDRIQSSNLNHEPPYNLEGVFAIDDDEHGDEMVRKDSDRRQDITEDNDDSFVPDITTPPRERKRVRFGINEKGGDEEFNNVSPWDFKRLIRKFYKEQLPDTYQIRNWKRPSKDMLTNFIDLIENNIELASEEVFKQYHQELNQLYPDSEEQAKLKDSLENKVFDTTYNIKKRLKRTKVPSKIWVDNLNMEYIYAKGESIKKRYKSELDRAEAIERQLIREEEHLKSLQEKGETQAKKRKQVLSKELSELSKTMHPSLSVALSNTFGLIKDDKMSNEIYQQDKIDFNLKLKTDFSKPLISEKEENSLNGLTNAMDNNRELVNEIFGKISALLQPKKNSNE
As to the kind of experiment: native MS; nanoflow spectra and tandem mode with collision-induced dissociation in the gas phase (argon); subassemblies stripped of subunits. As to conditions: both partners purified.

The target of data set [4] is T3, Ame1-Okp1 (K. lactis, full length) (Kluyveromyces lactis, UniProt Q6CUE5 1-292; Q6CJY0 1-383).
T3 construct: Ame1 of Kluyveromyces lactis; Okp1 of Kluyveromyces lactis; stands as the Ame1-Okp1 part of COMA; also called Okp1-Ame1; source: E. coli BL21 Rosetta 2(DE3)pLysS, co-expressed with Ctf19 and Mcm21 versions
T3 sequence (looked up) 1: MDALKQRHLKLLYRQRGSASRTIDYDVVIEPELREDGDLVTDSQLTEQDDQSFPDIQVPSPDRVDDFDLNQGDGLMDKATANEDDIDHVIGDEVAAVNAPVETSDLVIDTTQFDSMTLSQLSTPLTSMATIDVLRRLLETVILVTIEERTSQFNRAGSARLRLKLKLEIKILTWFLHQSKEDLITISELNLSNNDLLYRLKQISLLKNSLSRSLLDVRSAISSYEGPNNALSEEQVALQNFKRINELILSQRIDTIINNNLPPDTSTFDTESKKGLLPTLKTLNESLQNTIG
T3 sequence (looked up) 2: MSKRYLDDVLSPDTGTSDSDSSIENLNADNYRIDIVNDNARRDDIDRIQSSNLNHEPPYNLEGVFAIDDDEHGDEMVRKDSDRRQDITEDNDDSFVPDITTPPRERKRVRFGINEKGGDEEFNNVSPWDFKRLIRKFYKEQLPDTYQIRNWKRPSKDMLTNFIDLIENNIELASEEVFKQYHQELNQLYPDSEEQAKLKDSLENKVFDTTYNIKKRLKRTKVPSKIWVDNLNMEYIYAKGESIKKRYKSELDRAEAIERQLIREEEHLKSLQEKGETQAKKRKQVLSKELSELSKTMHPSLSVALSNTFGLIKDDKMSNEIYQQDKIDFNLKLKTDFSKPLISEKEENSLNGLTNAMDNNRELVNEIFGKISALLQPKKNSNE
The data set is described as above. As to conditions: both partners purified.

Data set [5] addresses T4, Nkp1 (K. lactis) (Kluyveromyces lactis, UniProt Q6CPR4 1-210).
T4 construct: Nkp1 of Kluyveromyces lactis; also called non-essential kinetochore protein 1; HisNkp1; source: E. coli BL21 Rosetta 2(DE3)pLysS, purified
T4 sequence (looked up): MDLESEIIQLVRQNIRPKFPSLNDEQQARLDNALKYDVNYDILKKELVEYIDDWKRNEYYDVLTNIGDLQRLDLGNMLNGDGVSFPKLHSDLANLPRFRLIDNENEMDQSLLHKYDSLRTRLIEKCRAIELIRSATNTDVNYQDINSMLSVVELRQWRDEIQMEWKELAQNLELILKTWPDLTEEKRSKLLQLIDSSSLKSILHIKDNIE
Put plainly: HDX-MS; purified assemblies in D2O buffer, quenched at pH ~2.5, pepsin column; exchange patterns compared between assemblies. As to conditions: both partners purified.

For data set [6], the target named is T2, COMA (K. lactis, full length: Ame1, …). Put plainly: SEC; reconstituted K. lactis COMA-Nkp1-Nkp2; peak fractions on Coomassie-stained SDS-PAGE. (In general: In gel filtration, larger molecules generally elute earlier.)
Data set [7] addresses T5, Ctf19_D-RWD-Mcm21_D-RWD-Okp1_229-383 (K. lactis) (Kluyveromyces lactis, UniProt Q6CRN7 107-270; Q6CVQ9 108-293; Q6CJY0 229-383).
T5 construct: Ctf19 of Kluyveromyces lactis, residues 107-270; Mcm21 of Kluyveromyces lactis, residues 108-293; also called Ctf19-Mcm21-Okp1 variant that includes Okp1 segment 3; CMO; source: E. coli BL21 Rosetta 2(DE3)pLysS, co-expressed, purified; copies: + +
T5 sequence (looked up) 1: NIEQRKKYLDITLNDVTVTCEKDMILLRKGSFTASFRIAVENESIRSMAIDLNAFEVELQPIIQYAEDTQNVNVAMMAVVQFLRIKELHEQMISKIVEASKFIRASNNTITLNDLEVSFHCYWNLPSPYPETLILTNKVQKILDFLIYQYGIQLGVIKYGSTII
T5 sequence (looked up) 2: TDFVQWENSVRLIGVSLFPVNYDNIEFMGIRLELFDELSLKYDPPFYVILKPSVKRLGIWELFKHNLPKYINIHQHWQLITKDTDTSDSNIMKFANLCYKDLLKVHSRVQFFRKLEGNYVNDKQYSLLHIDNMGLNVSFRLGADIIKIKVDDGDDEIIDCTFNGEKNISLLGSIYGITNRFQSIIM
T5 sequence (looked up) 3: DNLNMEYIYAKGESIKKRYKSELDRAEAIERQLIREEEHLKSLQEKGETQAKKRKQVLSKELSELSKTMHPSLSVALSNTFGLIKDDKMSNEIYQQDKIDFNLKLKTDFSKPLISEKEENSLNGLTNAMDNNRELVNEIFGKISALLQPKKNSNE
Put plainly: SEC; analytical SEC of purified K. lactis samples alone and combined, Superdex 200 10/300, 4°C; fractions on SDS-PAGE. To be noted: both partners purified.

Regarding “COMA-Nkp1-Nkp2: reconstituted COMA bound with Nkp1-Nkp2”, in data set [1], the “hydrodynamic radius (Rh)” value was determined as 13.7 nm.

For “N330A-K332P: Okp1 peptide variant differing in two residue positions (SNEIYQQDKIDFALPLKTDF)”, the “dissociation constant (Kd)” value in data set [2] is recorded as “no detectable binding”.

B1: Nkp2 (K. lactis) (natural protein, Kluyveromyces lactis, UniProt Q6CSR8 1-151, looked up)
chain: MLHEVLYKHLDGILVSRLYTEDQFVDLFSRTIPESNTVIASQLYKSYEENDQRIIEKIDKLIDNKLSLIRVELEREQIEDSISLEEVNKLLHSIDDMLQQHLNQLNIELDNKNTKLLKYAMELSDIEAIDTSMYDNVAKLITDMETNQPSS
notes: Nkp2 of Kluyveromyces lactis; also called non-essential kinetochore protein 2; source: E. coli BL21 Rosetta 2(DE3)pLysS, purified
In the case of B1, the binding result in data set [3], in data set [4] and in data set [5] was “binds” throughout.

B2: Nkp1-Nkp2 heterodimer (K. lactis) (complex, Kluyveromyces lactis)
chain 1: MDLESEIIQLVRQNIRPKFPSLNDEQQARLDNALKYDVNYDILKKELVEYIDDWKRNEYYDVLTNIGDLQRLDLGNMLNGDGVSFPKLHSDLANLPRFRLIDNENEMDQSLLHKYDSLRTRLIEKCRAIELIRSATNTDVNYQDINSMLSVVELRQWRDEIQMEWKELAQNLELILKTWPDLTEEKRSKLLQLIDSSSLKSILHIKDNIE
chain 2: MLHEVLYKHLDGILVSRLYTEDQFVDLFSRTIPESNTVIASQLYKSYEENDQRIIEKIDKLIDNKLSLIRVELEREQIEDSISLEEVNKLLHSIDDMLQQHLNQLNIELDNKNTKLLKYAMELSDIEAIDTSMYDNVAKLITDMETNQPSS
notes: Nkp1 of Kluyveromyces lactis; Nkp2 of Kluyveromyces lactis; also called NN; source: E. coli BL21 Rosetta 2(DE3)pLysS, purified
Take B2: the binding result in data set [6] and in data set [7] was “binds” each time.
